Measured values taken from article PMC2556353, “Identification of direct regulatory targets of the transcription factor Sox10 based on function and conservation”.

Legend:
GST-SOX10 HMG [1] = target: T1, GST-SOX10 HMG (mouse, UniProt Q04888 80-185); experiment: EMSA; specific unlabeled probe abrogates the complex; 10 mM HEPES pH 8.0, 5% glycerol, 50 mM NaCl, 5 mM MgCl2, 2 mM DTT, 0.1 mM EDTA, 4 ug BSA, 2 ug poly(dIdC) in 35 ul; 25 min at room temperature; 5% PAGE in 1x TBE; details: protein: recombinant; tags: N-terminal GST (pGEX-4T-1); label: 32P end label (probe); 3' overhang 4 nt on strand 1 as printed (20-mer/16-mer)
T1 sequence (Q04888 80-185): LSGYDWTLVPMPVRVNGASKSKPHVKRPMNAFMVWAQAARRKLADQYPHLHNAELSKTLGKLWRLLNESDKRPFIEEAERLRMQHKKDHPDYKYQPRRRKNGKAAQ

GST-SOX10 HMG [2] = target: T1, GST-SOX10 HMG; experiment: competition; unlabeled excess against labeled WT SOD3 probe; did not effectively compete; 10 mM HEPES pH 8.0, 5% glycerol, 50 mM NaCl, 5 mM MgCl2, 2 mM DTT, 0.1 mM EDTA, 4 ug BSA, 2 ug poly(dIdC) in 35 ul; 25 min at room temperature; 5% PAGE in 1x TBE; details: protein: recombinant; tags: N-terminal GST (pGEX-4T-1); blunt

B1: SOD3 probe (WT) (dsDNA)
DNA 1: GAAGAGGCACAATGGTCTCT
DNA 2: ACCATTGTGCCTCTTC
- binding result (GST-SOX10 HMG [1]): binds

B2: SOD3 mutated probe (MT) (dsDNA)
DNA 1: GAAGAGGCAGACTGGTCTCT
DNA 2: AGAGACCAGTCTGCCTCTTC
- binding result (GST-SOX10 HMG [2]): no binding
